From doi:10.1101/2025.11.24.690255v1

B1: β-glucosidase B (BglB) (Paenibacillus polymyxa; N160L) (protein)
chain: MSENTFIFPATFMWGTSTSSYQIEGGTDEGGRTPSIWDTFCQIPGKVIGGDCGDVACDHFHHFKEDVQLMKQLGFLHYRFSVAWPRIMPAAGIINEEGLLFYEHLLDEIELAGLIPMLTLYHWDLPQWIEDEGGWTQRETIQHFKTYASVIMDRFGERILWWNTINEPYCASILGYGTGEHAPGHENWREAFTAAHHILMCHGIASNLHKEKGLTGKIGITLNMEHVDAASERPEDVAAAIRRDGFINRWFAEPLFNGKYPEDMVEWYGTYLNGLDFVQPGDMELIQQPGDFLGINYYTRSIIRSTNDASLLQVEQVHMEEPVTDMGWEIHPESFYKLLTRIEKDFSKGLPILITENGAAMRDELVNGQIEDTGRHGYIEEHLKACHRFIEEGGQLKGYFVWSFLDNFEWAWGYSKRFGIVHINYETQERTPKQSALWFKQMMAKNGF
B2: β-glucosidase B (BglB) (Paenibacillus polymyxa; N160C) (protein)
chain: MSENTFIFPATFMWGTSTSSYQIEGGTDEGGRTPSIWDTFCQIPGKVIGGDCGDVACDHFHHFKEDVQLMKQLGFLHYRFSVAWPRIMPAAGIINEEGLLFYEHLLDEIELAGLIPMLTLYHWDLPQWIEDEGGWTQRETIQHFKTYASVIMDRFGERICWWNTINEPYCASILGYGTGEHAPGHENWREAFTAAHHILMCHGIASNLHKEKGLTGKIGITLNMEHVDAASERPEDVAAAIRRDGFINRWFAEPLFNGKYPEDMVEWYGTYLNGLDFVQPGDMELIQQPGDFLGINYYTRSIIRSTNDASLLQVEQVHMEEPVTDMGWEIHPESFYKLLTRIEKDFSKGLPILITENGAAMRDELVNGQIEDTGRHGYIEEHLKACHRFIEEGGQLKGYFVWSFLDNFEWAWGYSKRFGIVHINYETQERTPKQSALWFKQMMAKNGF
B3: β-glucosidase B (BglB) (Paenibacillus polymyxa; N160G) (protein)
chain: MSENTFIFPATFMWGTSTSSYQIEGGTDEGGRTPSIWDTFCQIPGKVIGGDCGDVACDHFHHFKEDVQLMKQLGFLHYRFSVAWPRIMPAAGIINEEGLLFYEHLLDEIELAGLIPMLTLYHWDLPQWIEDEGGWTQRETIQHFKTYASVIMDRFGERIGWWNTINEPYCASILGYGTGEHAPGHENWREAFTAAHHILMCHGIASNLHKEKGLTGKIGITLNMEHVDAASERPEDVAAAIRRDGFINRWFAEPLFNGKYPEDMVEWYGTYLNGLDFVQPGDMELIQQPGDFLGINYYTRSIIRSTNDASLLQVEQVHMEEPVTDMGWEIHPESFYKLLTRIEKDFSKGLPILITENGAAMRDELVNGQIEDTGRHGYIEEHLKACHRFIEEGGQLKGYFVWSFLDNFEWAWGYSKRFGIVHINYETQERTPKQSALWFKQMMAKNGF
B4: β-glucosidase B (BglB) (Paenibacillus polymyxa; N160M) (protein)
chain: MSENTFIFPATFMWGTSTSSYQIEGGTDEGGRTPSIWDTFCQIPGKVIGGDCGDVACDHFHHFKEDVQLMKQLGFLHYRFSVAWPRIMPAAGIINEEGLLFYEHLLDEIELAGLIPMLTLYHWDLPQWIEDEGGWTQRETIQHFKTYASVIMDRFGERIMWWNTINEPYCASILGYGTGEHAPGHENWREAFTAAHHILMCHGIASNLHKEKGLTGKIGITLNMEHVDAASERPEDVAAAIRRDGFINRWFAEPLFNGKYPEDMVEWYGTYLNGLDFVQPGDMELIQQPGDFLGINYYTRSIIRSTNDASLLQVEQVHMEEPVTDMGWEIHPESFYKLLTRIEKDFSKGLPILITENGAAMRDELVNGQIEDTGRHGYIEEHLKACHRFIEEGGQLKGYFVWSFLDNFEWAWGYSKRFGIVHINYETQERTPKQSALWFKQMMAKNGF
B5: β-glucosidase B (BglB) (Paenibacillus polymyxa; N160S) (protein)
chain: MSENTFIFPATFMWGTSTSSYQIEGGTDEGGRTPSIWDTFCQIPGKVIGGDCGDVACDHFHHFKEDVQLMKQLGFLHYRFSVAWPRIMPAAGIINEEGLLFYEHLLDEIELAGLIPMLTLYHWDLPQWIEDEGGWTQRETIQHFKTYASVIMDRFGERISWWNTINEPYCASILGYGTGEHAPGHENWREAFTAAHHILMCHGIASNLHKEKGLTGKIGITLNMEHVDAASERPEDVAAAIRRDGFINRWFAEPLFNGKYPEDMVEWYGTYLNGLDFVQPGDMELIQQPGDFLGINYYTRSIIRSTNDASLLQVEQVHMEEPVTDMGWEIHPESFYKLLTRIEKDFSKGLPILITENGAAMRDELVNGQIEDTGRHGYIEEHLKACHRFIEEGGQLKGYFVWSFLDNFEWAWGYSKRFGIVHINYETQERTPKQSALWFKQMMAKNGF

Substrate: O=[N+]([O-])c1ccc(O[C@@H]2O[C@H](CO)[C@@H](O)[C@H](O)[C@H]2O)cc1
Assay: purified protein
Settings: 0-100 mM substrate, 15 min

**Q.** Which Km does the source give for B1 here?
**A.** 13.8 ± 1.6 mM

**Q.** And the kcat?
**A.** 194.7 ± 7.6 min⁻¹

**Q.** What does the source list for B2?
**A.** Km: 4.3 ± 0.3 mM; kcat: 548.8 ± 9.4 min⁻¹

**Q.** Which results are given for B3?
**A.** Km: 3.5 ± 0.2 mM; kcat: 588.6 ± 8.2 min⁻¹

**Q.** How did the Km turn out when B4 was run?
**A.** 14.1 ± 1.3 mM

**Q.** What about the kcat of the same protein?
**A.** 249.7 ± 7.3 min⁻¹

**Q.** What does the source list for B5?
**A.** Km: 4.9 ± 0.2 mM; kcat: 271.6 ± 3.0 min⁻¹
